Target: the molecule itself
Test: single-molecule fluorescence imaging (TIRF) with intensity analysis; Cy5-labelled IFI16 (3 to 5 nM) supplied under constant flow (20 ul/min) to single-biotinylated lambda dsDNA anchored on a coverslip; number of molecules per cluster from particle intensity against single molecules at 1 nM; 40 mM HEPES pH 7.4, 160 mM KCl, 1 mM EDTA, 2 mM DTT, 10% glycerol, 0.1% Triton-X100, 250 ug/ml BSA; room temperature

B1: Human full-length IFI16 (interferon-inducible protein 16) (natural protein, UniProt Q16666 1-785, looked up)
chain: MGKKYKNIVLLKGLEVINDYHFRMVKSLLSNDLKLNLKMREEYDKIQIADLMEEKFRGDAGLGKLIKIFEDIPTLEDLAETLKKEKLKVKGPALSRKRKKEVDATSPAPSTSSTVKTEGAEATPGAQKRKKSTKEKAGPKGSKVSEEQTQPPSPAGAGMSTAMGRSPSPKTSLSAPPNSSSTENPKTVAKCQVTPRRNVLQKRPVIVKVLSTTKPFEYETPEMEKKIMFHATVATQTQFFHVKVLNTSLKEKFNGKKIIIISDYLEYDSLLEVNEESTVSEAGPNQTFEVPNKIINRAKETLKIDILHKQASGNIVYGVFMLHKKTVNQKTTIYEIQDDRGKMDVVGTGQCHNIPCEEGDKLQLFCFRLRKKNQMSKLISEMHSFIQIKKKTNPRNNDPKSMKLPQEQRQLPYPSEASTTFPESHLRTPQMPPTTPSSSFFTKKSEDTISKMNDFMRMQILKEGSHFPGPFMTSIGPAESHPHTPQMPPSTPSSSFLTTKSEDTISKMNDFMRMQILKEGSHFPGPFMTSIGPAESHPHTPQMPPSTPSSSFLTTLKPRLKTEPEEVSIEDSAQSDLKEVMVLNATESFVYEPKEQKKMFHATVATENEVFRVKVFNIDLKEKFTPKKIIAIANYVCRNGFLEVYPFTLVADVNADRNMEIPKGLIRSASVTPKINQLCSQTKGSFVNGVFEVHKKNVRGEFTYYEIQDNTGKMEVVVHGRLTTINCEEGDKLKLTCFELAPKSGNTGELRSVIHSHIKVIKTRKNKKDILNPDSSMETSPDFFF
modifications: DyLight-550, DyLight-650 or Cy5 fluorophore incorporated by maleimide chemistry; label to protein ratio ~1:1
notes: interferon-inducible protein 16 (IFI16), human, full length; FRET assays mixed DyLight-550 and DyLight-650 labelled protein 1:1; microscopy used Cy5-labelled protein; also called IFI16-550; IFI16-650; source: E. coli T7 express cells (NEB), as described in Morrone et al., 2014
  stoichiometry N: ≥ 8 protomers per cluster

Reference: publication PMC4829420, “The innate immune sensor IFI16 recognizes foreign DNA in the nucleus by scanning along the duplex” (eLife, 2015)
